Assay results from publication PMC5728393 (Nucleic Acids Research, 2017).

T1: PadR (Bacillus spizizenii, UniProt E0TW95)
T1 sequence (E0TW95 1-182): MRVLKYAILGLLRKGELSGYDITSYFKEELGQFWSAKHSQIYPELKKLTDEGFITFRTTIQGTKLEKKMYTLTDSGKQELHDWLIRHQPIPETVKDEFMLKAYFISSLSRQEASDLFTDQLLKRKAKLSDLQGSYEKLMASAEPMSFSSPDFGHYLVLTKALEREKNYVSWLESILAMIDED

T2: PadR WT (Bacillus subtilis, UniProt E0TW95 1-182)
T2 sequence: T1 sequence (E0TW95 1-182)

B1: phenolic acid decarboxylase regulator (PadR) from Bacillus subtilis, wild type (natural protein, UniProt E0TW95 1-182, looked up)
chain: T1 sequence (E0TW95 1-182)
B2: operator C6G/C6'G (dsDNA)
DNA 1: CGGAAGATGTAAATAGTTACATCATTAC
DNA 2: GTAATGATGTAACTATTTACATCTTCCG
B3: operator G9T/G9'T (dsDNA)
DNA 1: CGGAACATTTAAATAGTTAAATGATTAC
DNA 2: GTAATCATTTAACTATTTAAATGTTCCG
B4: operator G9A/G9'A (dsDNA)
DNA 1: CGGAACATATAAATAGTTATATGATTAC
DNA 2: GTAATCATATAACTATTTATATGTTCCG
B5: bridge operator (dsDNA)
DNA 1: AGTTACATGATTACCGGAACATGTAAAT
DNA 2: ATTTACATGTTCCGGTAATCATGTAACT
B6: operator T8A/T8'A (dsDNA)
DNA 1: CGGAACAAGTAAATAGTTACTTGATTAC
DNA 2: GTAATCAAGTAACTATTTACTTGTTCCG
B7: operator T17A/T17'A (dsDNA)
DNA 1: CGGAACATGTATATAGATACATGATTAC
DNA 2: GTAATCATGTATCTATATACATGTTCCG
B8: operator T18C/T18'C (dsDNA)
DNA 1: CGGAACATGTGAATAGTCACATGATTAC
DNA 2: GTAATCATGTGACTATTCACATGTTCCG
B9: operator T10A/T10'A (dsDNA)
DNA 1: CGGAACATGAAAATAGTTTCATGATTAC
DNA 2: GTAATCATGAAACTATTTTCATGTTCCG
B10: operator C6T/C6'T (dsDNA)
DNA 1: CGGAATATGTAAATAGTTACATAATTAC
DNA 2: GTAATTATGTAACTATTTACATATTCCG
B11: operator C6A/C6'A (dsDNA)
DNA 1: CGGAAAATGTAAATAGTTACATTATTAC
DNA 2: GTAATAATGTAACTATTTACATTTTCCG
B12: operator T18G/T18'G (dsDNA)
DNA 1: CGGAACATGTCAATAGTGACATGATTAC
DNA 2: GTAATCATGTCACTATTGACATGTTCCG

These molecules were tested against T1, PadR (assay: isothermal titration calorimetry). Details: not given.
Assay type: binding

Molecule `O=C(O)/C=C/c1ccc(O)cc1` [p-coumaric acid] has a Kd of 6200 ± 100 nM.

What follows are molecules tested against T1, PadR (assay: X-ray crystal structure of the complex). Details: 10 mM ferulic acid soak, 22% PEG 3350, 0.1 M sodium acetate pH 4.0; interdomain pocket.
Assay type: binding

For `COc1cc(/C=C/C(=O)O)ccc1O` [ferulic acid], the “X-ray crystal structure of the complex (soaked crystals)” value was “we also determined a PadR structure in complex with ferulic acid (PadR3FA)”.

Target: the molecule itself
Test: SEC
Details: not given

In the case of B1, the “stoichiometry N” value is reported as 2.

The molecules below were run against T2, PadR WT (assay: fluorescence polarization). Details: not given.

Going from B2 to B3, the Kd falls from 200 ± 21.7 nM to 37.8 ± 6.7 nM (5.3-fold). The second binds more tightly here.

Compared with B4, B5 is 1.8-fold lower in Kd: 15.7 ± 2.9 nM for the first, 8.9 ± 2.1 nM for the second.

First: B6
Second: B7
The Kd of the first is 4.4-fold higher: 41 ± 4 nM for the first, 9.4 ± 1.4 nM for the second.

Compared with B8, B9 is 1.8-fold lower in Kd: 20.8 ± 1.9 nM for the first, 11.6 ± 1.3 nM for the second. The second binds more tightly here.

Going from B10 to B11, the Kd rises from 160 ± 6.9 nM to 312 ± 45.5 nM (1.9-fold).

B12 gave a Kd of 9.9 ± 1.7 nM.
